Measured values from patent US20060110799A1, “Mitogen-activated protein kinase kinase MEK6 and methods of use thereof” (Signal Pharmaceuticals, Inc., priority 1995, published 2006).
Read-outs that look alike come from different tables or passages of the source.

What was measured:
MEK6 = experiment: immune complex kinase assay with GST-p38 substrate, HeLa cells transfected with epitope-tagged MEK6; type: cell-based, human; conditions: for stimulation of MEK6 (summary of Example 4): summary statement for transfected HeLa and COS cells
Protocol: Next, we examined whether MEK6 can activate p38 in vivo. An expression vector encoding epitope-tagged MEK6 (3xHA-MEK6-SRα3) was constructed by replacing serine in position 2 of MEK6 with alanine, adding sequence encoding three copies of a 10 amino acid hemagglutinin (HA) epitope to the N-terminus of MEK6 and ligating the resulting cDNA into SRα3. HeLa cells, cultured in Dulbecco's modified Eagle medium supplemented with 10% fetal calf serum, 500 mg/l L-glutamine, and antibiotics, were transiently transfected with 3xHA-MEK6 using calcium phosphate-mediated DNA precipitation (Graham and van der Eb, Virology 52:456-467 (1973)). Twenty-four hours later cells were stimulated with anisomycin (50 ng/mL) or UV (254 nm; 120 J/m^2) for 0-120 minutes. Cell lysates were prepared by solubilization in lysis buffer as described (Derijard et al., Cell 76:1025-1037 (1994)), and protein concentration of lysates was determined by Bradford assay (Bradford, Ann. Biochem. 72:248-254(1976)).
In an initial experiment we investigated the time course of MEK6 activation by anisomycin and UV treatment of transfected cells. Cell lysates were used in an immune complex kinase assay with GST-p38 substrate, performed as described above except that 30 μg cell lysate was immunoprecipitated for 2 hours with the anti-HA antibody 12CA5 (Boehringer-Mannheim Corp., Indianapolis, Ind.) and then incubated with 1 μg of recombinant substrate. Reactions were separated by SDS-PAGE and quantitated with a phosphorimager and ImageQuant software. The relative level of MEK6 activity in untreated cells was arbitrarily assigned 1.
To investigate the pattern of regulation of MEK6, cells were transiently transfected with 3xHA-MEK6 (as described in Example 3) and treated with various stimulators of the MAPK pathway.
MEKK has been described as a MAPKKK leading to the phosphorylation and activation of JNKK (Lin et al., Science 268:286-290 (1995); Minden et al., Science 266:1719-1722 (1994); Yan et al., Nature 372:798-800 (1994)). In an initial experiment, HeLa (FIG. 7A) or COS (FIG. 7B) cells were transiently transfected with epitope-tagged MEK6 (lanes 1 to 12) or the empty expression vector SRα3 (lanes 13 to 16) and treated for 45 min with IL-1β (10 ng/ml), TNF-α (10 ng/ml), EGF (50 ng/ml), NGF (50 ng/ml), PMA (50 ng/ml), Anisomycin (50 ng/ml), Cycloheximide (CX, 50 ng/ml), Arsenite (200 μM), NaCl (200 μM), UV (254 nm; 120 J/m^2) or cotransfected with 1000 ng CMV5-MEKK as indicated. Cell lysates were used in an immune complex kinase assay with GST-p38 substrate as described in Example 3. MEK6 activity was quantitated with a phosphorimager and ImageQuant software.

MEK6 / p38 / ATF2 = experiment: coupled immune complex kinase assay, MEK6 from anisomycin-treated HeLa cells, recombinant p38 and ATF2; type: cell-based, human; conditions: anisomycin 45 minutes, 50 ng/mL, FIG. 6
Protocol: To determine whether the increase in p38 phosphorylation by activated MEK6 augments p38 kinase activity a coupled immune complex kinase assay was performed. Epitope-tagged MEK6 was isolated from anisomycin-treated HeLa cells (45 minutes; 50 ng/mL) and subjected to two subsequent kinase reactions as described above using recombinant p38, ATF2 and GST alone. […] Similar results have been found with MEK6 activated by UV treatment of cells (data not shown). […] This phosphorylation event was slightly augmented by anisomycin in the presence of MEK6 (FIG. 6, compare lanes 3 and 4 with lanes 11 and 12). This protein was not observed in in vitro kinase assays, and therefore is most likely a contamination of the immunoprecipitation.

GST-p38 [1] = molecular target: T1, GST-p38 (Homo sapiens, UniProt Q16539, S2A); experiment: in vitro kinase assay with bacterially expressed MAPK substrate; type: biochemical; conditions: 0.5 μg recombinant kinase, 1 μg substrate, 50 nM [γ-32P]ATP
T1 construct: ligating the respective cDNA fragments encoding amino acid 1 through the stop codon into pGEX-KG; made in house; host or cells: bacteria (pGEX-KG)
Protocol: (§1) A MEK6 kinase assay may be performed substantially as described in Derijard et al., Cell 76:1025-1037 (1994) and Lin et al., Science 268:286-290 (1995), with minor modifications. Briefly, a polypeptide variant of MEK6 may be incubated with p38 and [γ-^32P]ATP in a suitable buffer (such as 20 mM HEPES (pH 7.6), 5 mM MnCl2, 10 mM MgCl2, 1 mM dithiothreitol) for 30 minutes at 30° C. In general, approximately 0.5 μg of the variant and 1 μg recombinant p38, with 50 nM [γ-^32P]ATP, is sufficient. Proteins may then be separated by SDS-PAGE on 10% gels and subjected to autoradiography. Incorporation of [^32P]phosphate into p38 may be quantitated using techniques well known to those of ordinary skill in the art, such as with a phosphorimager. To evaluate the substrate specificity of polypeptide variants, a kinase assay may generally be performed as described above except that other MAPK substrates (i.e., JNK2 and/or ERK) are substituted for the p38.
(§2) cDNAs encoding MEK6 and MKK3 were subcloned into a bacterial GST-fusion protein expression vector. GST-MEK6 was constructed by ligating a 1.3 kb DNA fragment encoding amino acid 1 through the stop codon of MEK6 with a serine to alanine substitution of amino acid 2 into pGEX-KG (Guan and Dixon, Ann. Biochem. 192:262-267 (1991)). Similarly, GST-MKK3, GST-p38 and GST-JNK2 were constructed by ligating the respective cDNA fragments encoding amino acid 1 through the stop codon into pGEX-KG. Human p38 cDNA (Genbank accession number U10871) was cloned by PCR amplification of a Jurkat cDNA library with primers against the 5′ end (5′-[…]-3′) (SEQ ID NO:5) and 3′ end (5′-[…]-3′) (SEQ ID NO:6) of the published human p38 sequence. Each strand of the PCR fragment was sequenced several times with an ABI 373 Automated Sequencer. His-ERK1[K52R] was prepared as described previously (Robbins et al., J. Biol. Chem. 268:5097-5106 (1993)).
(§3) We investigated the substrate specificity of MEK6 in an in vitro kinase assay with bacterially expressed MAPK substrates (GST-JNK2, GST-p38 and His-ERK1[K52R]). The assays were performed as previously described (Derijard et al., Cell 76:1025-1037 (1994); Lin et al., Science 268:286-290 (1995)) with minor modifications. 0.5 μg recombinant kinase and 1 μg recombinant substrate were used, and the concentration of [γ-^32P]ATP was 50 nM. Phosphorylated proteins were separated by SDS-PAGE on 10% gels and then subjected to autoradiography. Incorporation of [^32P]phosphate was quantitated with a phosphorimager and ImageQuant software (Molecular Dynamics, Inc., Sunnyvale, Calif.).

GST-p38 [2] = molecular target: T2, GST-p38 (Homo sapiens, UniProt P52564, S2A); experiment: as above; type: biochemical; conditions: in vitro kinase assay, compared to MKK3
T2 construct: ligating the respective cDNA fragments encoding amino acid 1 through the stop codon into pGEX-KG; made in house; host or cells: bacteria (pGEX-KG)
T2 sequence (P52564 1-334 S2A): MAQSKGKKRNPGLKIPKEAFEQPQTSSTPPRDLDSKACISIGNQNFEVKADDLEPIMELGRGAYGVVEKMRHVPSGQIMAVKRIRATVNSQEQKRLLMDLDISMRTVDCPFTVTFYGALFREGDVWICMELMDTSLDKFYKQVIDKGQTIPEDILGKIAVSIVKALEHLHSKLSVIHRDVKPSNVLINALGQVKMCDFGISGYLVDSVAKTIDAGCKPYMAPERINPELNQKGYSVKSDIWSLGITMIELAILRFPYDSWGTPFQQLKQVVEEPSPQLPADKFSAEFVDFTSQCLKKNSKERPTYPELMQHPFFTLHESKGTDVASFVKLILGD
Protocol: as §1, §2, §3

His-ERK1[K52R] = experiment: as above; type: biochemical; conditions: 0.5 μg recombinant kinase, 1 μg substrate, 50 nM [γ-32P]ATP
Protocol: as §1, §2, §3

GST-JNK2 = molecular target: T3, GST-JNK2 (Homo sapiens, UniProt P45984); experiment: as above; type: biochemical; conditions: 0.5 μg recombinant kinase, 1 μg substrate, 50 nM [γ-32P]ATP
T3 construct: ligating the respective cDNA fragments encoding amino acid 1 through the stop codon into pGEX-KG; made in house; host or cells: bacteria (pGEX-KG)
Protocol: as §1, §2, §3

[3] = tested on: GST-JNK2 / GST-cJun(1-79); experiment: coupled in vitro kinase assay (JNK2, GST-cJun(1-79)); type: biochemical; conditions: FIG. 3B lanes 1 to 3
GST-p38 / GST-ATF2 = experiment: coupled in vitro kinase assay (p38, GST-ATF2); type: biochemical, human
Protocol: To determine whether p38 phosphorylation results in activation, a coupled in vitro kinase assay may be performed using a substrate for p38, such as ATF2, with or without an epitope tag. ATF2 for use in such an assay may be prepared as described in Gupta et al., Science 257:389-393 (1995). Briefly, following phosphorylation of p38 as described above, isolation of the protein by binding to GSH-sepharose and washing with 20 mM HEPES (pH 7.6), 20 mM MgCl2, the p38 (0.1-10 μg) may be incubated with ATF2 (0.1-10 μg) and [γ-^32P]ATP (10-500 nM) in a buffer containing 20 mM HEPES (pH 7.6), 20 mM MgCl2. It should be noted that alternative buffer may be used and that buffer composition can vary without significant effects on kinase activity. Reactions may be separated by SDS-PAGE, visualized by autoradiography and quantitated using any of a variety of known techniques. Activated p38 will be capable of phosphorylating ATF2 at a level of at least 5% above background using this assay.
To determine whether phosphorylation of p38 is an activating event we analyzed the phosphorylation of recombinant ATF2 (a substrate for p38) in a coupled in vitro kinase assay. […] Reactions were separated by SDS-PAGE and visualized by autoradiography.

[4] = HeLa cells, 45 min, anisomycin 50 ng/ml, NaCl 200 μM, IL-1β 10 ng/ml, EGF 50 ng/ml, NGF 50 ng/ml, CMV5-MEKK 1000 ng cotransfected, FIG. 7A
[5] = HeLa cells, anisomycin 50 ng/mL, FIG. 4

T1 sequence (Q16539 whole entry S2A, the tested form may be a part): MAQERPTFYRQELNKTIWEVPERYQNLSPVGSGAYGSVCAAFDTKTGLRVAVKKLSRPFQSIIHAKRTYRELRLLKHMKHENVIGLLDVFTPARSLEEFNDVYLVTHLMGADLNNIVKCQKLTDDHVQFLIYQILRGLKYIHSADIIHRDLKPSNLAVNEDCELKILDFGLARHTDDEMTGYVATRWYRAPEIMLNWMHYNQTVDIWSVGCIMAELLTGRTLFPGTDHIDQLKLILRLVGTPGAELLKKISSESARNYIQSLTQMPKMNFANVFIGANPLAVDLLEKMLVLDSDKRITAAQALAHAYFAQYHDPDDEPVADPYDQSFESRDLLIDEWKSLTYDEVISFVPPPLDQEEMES

[Cl-].[Na+] [NaCl]
induction of MEK6 kinase activity (MEK6): strongest inducers

COc1ccc(C[C@H]2NC[C@H](O)[C@H]2OC(C)=O)cc1 [anisomycin]
phosphorylation of ATF2 after anisomycin treatment (MEK6 / p38 / ATF2): increased phosphorylation of ATF2 only when MEK6 and p38 were present
induction of MEK6 kinase activity (MEK6; [4]): strongest inducers
time at which MEK6 activation was first observed after treatment (MEK6; [5]): 10 min
time of peak MEK6 activation after treatment (MEK6; [5]): 40 min
stimulation of MEK6 (summary of Example 4) (MEK6): strongly activated

C[C@@H]1C[C@@H]([C@H](O)CC2CC(=O)NC(=O)C2)C(=O)[C@@H](C)C1 [cycloheximide]
stimulation of MEK6 (summary of Example 4) (MEK6): did not significantly activate MEK6

EGF: strong inducer of the ERK pathway
induction of MEK6 kinase activity (MEK6; [4]): did not activate MEK6
stimulation of MEK6 (summary of Example 4) (MEK6): did not stimulate MEK6

IL-1β: cytokine stimulator
induction of MEK6 kinase activity (MEK6; [4]): weak induction

NGF: strong inducer of the ERK pathway
induction of MEK6 kinase activity (MEK6; [4]): did not activate MEK6
stimulation of MEK6 (summary of Example 4) (MEK6): did not stimulate MEK6

B1: MEK6: human mitogen-activated protein kinase kinase, SEQ ID NO:2, 334 amino acids; used as GST fusion or HA epitope-tagged (protein)
chain: SQSKGKKRNPGLKIPKEAFEQPQTSSTPPRDLDSKACISIGNQNFEVKADDLEPIMELGRGAYGVVEKMRHVPSGQIMAVKRIRATVNSQEQKRLLMDLDISMRTVDCPFTVTFYGALFREGDVWICMELMDTSLDKFYKQVIDKGQTIPEDILGKIAVSIVKALEHLHSKLSVIHRDVKPSNVLINALGQVKMCDFGISGYLVDSVAKTIDAGCKPYMAPERINPELNQKGYSVKSDIWSLGITMIELAILRFPYDSWGTPFQQLKQVVEEPSPQLPADKFSAEFVDFTSQCLKKNSKERPTYPELMQHPFFTLHESKGTDVASFVKLILGD
modifications: GST fusion or HA tag; homo sapien
phosphorylation of p38 by MEK6 (GST-p38 [1]): efficiently phosphorylated p38
autophosphorylation of MEK6 (GST-p38 [2]): very low compared to MKK3
phosphorylation of ERK1[K52R] by MEK6 (His-ERK1[K52R]): none of the other substrates
phosphorylation of JNK2 by MEK6 (GST-JNK2): none of the other substrates
phosphorylation of Jun, directly or in combination with JNK2 [3]: did not cause increased phosphorylation of Jun
phosphorylation of ATF2 by p38 activated by MEK6 (GST-p38 / GST-ATF2; FIG. 3B lane 5): strongly phosphorylated
direct phosphorylation of ATF2 by MEK6 (GST-p38 / GST-ATF2; without p38): not directly phosphorylated
